According to the Immune Epitope Database (IEDB):

molecular target: HLA-B*44:03; assay: IEDB peptide-MHC binding, purified MHC/competitive/radioactivity; ≥ and ≤ were set here for values at or beyond the usual limits of such assays; details: source organism: Bordetella pertussis

Row | Sequence | IC50 [µM]
1 | PGPQPPQPQ | 48.6
2 | TEVYLEHRM | 2.72

molecular target: HLA-A*02:01; assay: as above; details: source organism: Bordetella pertussis

Row | Sequence | IC50 [µM]
3 | EGKMESNKD | ≥ 78.1
4 | KLLHHILPI | 0.312
5 | RKMLYLIYV | 5.45
6 | SLFAILSST | 1.42

molecular target: HLA-B*35:01; assay: as above; details: source organism: Bordetella pertussis

Row | Sequence | IC50 [µM]
7 | ADDPPATVY | 69.9
8 | DPPATVYRY | 7.2
9 | EPVKLTLTG | 13.7
10 | EVRADNNFY | 25.6
11 | PKPKPKPKP | 64.9

molecular target: HLA-B*53:01; assay: as above; details: source organism: Bordetella pertussis

Row | Sequence | IC50 [µM]
12 | DPPATVYRY | 52.9

molecular target: HLA-B*07:02; assay: as above; details: source organism: Bordetella pertussis

Row | Sequence | IC50 [µM]
13 | ARRSRVRAL | 15.8
14 | NPYTSRRSV | 0.274
15 | TVLAAGAGL | 69.6

molecular target: HLA-B*57:01; assay: as above; details: source organism: Bordetella pertussis

Row | Sequence | IC50 [µM]
16 | KQADRDFVW | 11.3
17 | LSGEVQRKG | ≥ 70.4
18 | RVRALSWLL | 2.12
19 | TSRRSVASI | 4.54
